The values that follow come from the supplement of paper PMC9112550, “Optimization of the antimicrobial peptide Bac7 by deep mutational scanning” (BMC Biology, 2022).
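Note: peptides expressed intracellularly from a pBAD plasmid library in pooled LB shake-flask culture, induced with 0.3% L-arabinose, DNA abundance read by NGS, three biological replicates, DESeq2 with apeglm shrinkage.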

The data set deals with Escherichia coli TOP10. Nature of the data set: shrunken log2 fold change of peptide-encoding DNA abundance (4.5 h post-induction vs induction); higher = less antimicrobial activity (less host growth inhibition). As to conditions: time post-induction: 4.5 h; library: site-saturation at positions 5, 18, 19, 20.
For the sequence RRIRKRPPRLPRPRPRPLTGPRP, the “shrunken log2 fold change” value was -0.0975.
Consider RRIRIRPPRLPRPRPRPMKLPRP, for which the “shrunken log2 fold change” value was -0.519.
The result for RRIRHRPPRLPRPRPRPTFMPRP reads -0.102; that for RRIRSRPPRLPRPRPRPQRPPRP, 0.0966; that for RRIRSRPPRLPRPRPRPLQYPRP, -0.221.
The value for RRIRIRPPRLPRPRPRPTIQPRP was -0.334; that for RRIRQRPPRLPRPRPRPHNKPRP was -0.599; that for RRIRTRPPRLPRPRPRPIKIPRP was -0.426.
The value for RRIRCRPPRLPRPRPRPFARPRP was 0.0264.
Take RRIRFRPPRLPRPRPRPLSCPRP: the “shrunken log2 fold change” value was -0.73.
For RRIRYRPPRLPRPRPRPVLGPRP, the “shrunken log2 fold change” value came to 0.0727.
In the case of RRIRSRPPRLPRPRPRPCWHPRP, the “shrunken log2 fold change” value is -0.245.
The result for RRIRDRPPRLPRPRPRPGDHPRP reads 0.00849.
The value for RRIRVRPPRLPRPRPRPHVPPRP was -0.044.
With RRIRARPPRLPRPRPRPMMFPRP, the “shrunken log2 fold change” value was determined as 0.166.
For RRIRCRPPRLPRPRPRPGHHPRP, the “shrunken log2 fold change” value is -0.439.
With RRIRARPPRLPRPRPRPKRRPRP, the “shrunken log2 fold change” value was found to be 0.282.
The value for RRIRGRPPRLPRPRPRPTKRPRP was 0.533.
Consider RRIRWRPPRLPRPRPRPTFRPRP, for which the “shrunken log2 fold change” value was -0.0799.
Consider RRIRCRPPRLPRPRPRPLRIPRP, for which the “shrunken log2 fold change” value was -0.0238.
On to RRIRWRPPRLPRPRPRPWTVPRP, for which the “shrunken log2 fold change” value is -0.0123.
The value for RRIRYRPPRLPRPRPRPKQSPRP was -0.156; that for RRIRLRPPRLPRPRPRPICNPRP was -0.243; that for RRIRRRPPRLPRPRPRPWSRPRP was 0.0777.
With RRIRMRPPRLPRPRPRPMGTPRP, the “shrunken log2 fold change” value was 0.301.
For the sequence RRIRQRPPRLPRPRPRPAGCPRP, the “shrunken log2 fold change” value was found to be 0.409.
The value for RRIRIRPPRLPRPRPRPEIMPRP was -0.183; that for RRIRVRPPRLPRPRPRPNCTPRP was -0.0535.
The result for RRIRWRPPRLPRPRPRPYQEPRP reads -0.0609.
Consider RRIRNRPPRLPRPRPRPMWDPRP, for which the “shrunken log2 fold change” value is -0.021.
Take RRIRIRPPRLPRPRPRPYHIPRP: the “shrunken log2 fold change” value is -0.0511.
The value for RRIRLRPPRLPRPRPRPSKVPRP was -0.117; that for RRIRVRPPRLPRPRPRPLKLPRP was -0.337; that for RRIRERPPRLPRPRPRPRKDPRP was -0.245.
Consider RRIRRRPPRLPRPRPRPQWWPRP, for which the “shrunken log2 fold change” value came out at 0.297.
The result for RRIRKRPPRLPRPRPRPKISPRP reads -0.0246; that for RRIRKRPPRLPRPRPRPHGCPRP, 0.352; that for RRIRLRPPRLPRPRPRPLTQPRP, 0.343.
Turning to RRIRIRPPRLPRPRPRPWYPPRP, the “shrunken log2 fold change” value was -0.238.
The result for RRIRQRPPRLPRPRPRPHQPPRP reads 0.00524; that for RRIRDRPPRLPRPRPRPINTPRP, -0.115.
The result for RRIRYRPPRLPRPRPRPHYDPRP reads -0.557; that for RRIRARPPRLPRPRPRPQMHPRP, 1.05; that for RRIRVRPPRLPRPRPRPQFDPRP, -0.00843.
With RRIRWRPPRLPRPRPRPTSEPRP, the “shrunken log2 fold change” value came out at 0.116.
Turning to RRIRMRPPRLPRPRPRPYSWPRP, the “shrunken log2 fold change” value is -0.0788.
Turning to RRIRMRPPRLPRPRPRPAGGPRP, the “shrunken log2 fold change” value was 0.831.
The value for RRIRARPPRLPRPRPRPCQNPRP was 0.105.
Regarding RRIRIRPPRLPRPRPRPNYSPRP, the “shrunken log2 fold change” value was -0.937.
With RRIRQRPPRLPRPRPRPKRPPRP, the “shrunken log2 fold change” value came to 0.135.
The result for RRIRRRPPRLPRPRPRPDYSPRP reads -0.263.
The result for RRIRGRPPRLPRPRPRPIDMPRP reads -0.0207; that for RRIRDRPPRLPRPRPRPISEPRP, -0.0429; that for RRIRDRPPRLPRPRPRPRVLPRP, 0.173.
As to RRIRTRPPRLPRPRPRPLHGPRP, the “shrunken log2 fold change” value stood at 0.184.
With RRIRHRPPRLPRPRPRPSFYPRP, the “shrunken log2 fold change” value is -1.09.
On to RRIRERPPRLPRPRPRPQIFPRP, for which the “shrunken log2 fold change” value is -0.0392.
The value for RRIRERPPRLPRPRPRPARSPRP was 0.0919; that for RRIRRRPPRLPRPRPRPYIEPRP was -0.338.
With RRIRGRPPRLPRPRPRPIFMPRP, the “shrunken log2 fold change” value amounted to 0.283.
The value for RRIRGRPPRLPRPRPRPGFPPRP was 0.691; that for RRIRPRPPRLPRPRPRPECLPRP was 0.0299; that for RRIRDRPPRLPRPRPRPMGPPRP was -0.00107.
RRIRMRPPRLPRPRPRPRGFPRP: the “shrunken log2 fold change” value came to 0.045.
For the sequence RRIRLRPPRLPRPRPRPFWHPRP, the “shrunken log2 fold change” value was -0.0379.
Regarding RRIRARPPRLPRPRPRPQRIPRP, the “shrunken log2 fold change” value is 0.177.
For the sequence RRIRMRPPRLPRPRPRPMLVPRP, the “shrunken log2 fold change” value stood at 0.2.
On to RRIRDRPPRLPRPRPRPNHDPRP, for which the “shrunken log2 fold change” value is -0.312.
The result for RRIRVRPPRLPRPRPRPFVHPRP reads -0.17; that for RRIRRRPPRLPRPRPRPQKNPRP, 0.204.
The value for RRIRPRPPRLPRPRPRPVISPRP was -0.00579; that for RRIRLRPPRLPRPRPRPSDPPRP was -0.0539.
On to RRIRMRPPRLPRPRPRPGCAPRP, for which the “shrunken log2 fold change” value was determined as 1.09.
The value for RRIRTRPPRLPRPRPRPHSNPRP was -0.489; that for RRIRYRPPRLPRPRPRPNAAPRP was 0.216; that for RRIRRRPPRLPRPRPRPEHAPRP was 0.686.
The value for RRIRIRPPRLPRPRPRPHDTPRP was -0.548.
As for RRIRWRPPRLPRPRPRPKSLPRP, the “shrunken log2 fold change” value was -0.0933.
For the sequence RRIRDRPPRLPRPRPRPTIMPRP, the “shrunken log2 fold change” value is -0.347.
The result for RRIRARPPRLPRPRPRPWYRPRP reads -0.099.
The value for RRIRHRPPRLPRPRPRPNQYPRP was -0.663.
The result for RRIRDRPPRLPRPRPRPTIQPRP reads -0.0142.
Consider RRIRSRPPRLPRPRPRPASDPRP, for which the “shrunken log2 fold change” value amounted to 0.407.
The value for RRIRQRPPRLPRPRPRPSDTPRP was -0.0683; that for RRIRYRPPRLPRPRPRPFTTPRP was 0.0402; that for RRIRVRPPRLPRPRPRPAESPRP was 0.0613.
The result for RRIRGRPPRLPRPRPRPTIAPRP reads 0.895; that for RRIRTRPPRLPRPRPRPMEMPRP, -0.236.
Take RRIRSRPPRLPRPRPRPFPWPRP: the “shrunken log2 fold change” value is -0.0834.
The value for RRIRPRPPRLPRPRPRPKRHPRP was 0.267; that for RRIRLRPPRLPRPRPRPYWNPRP was -1.03.
Turning to RRIRWRPPRLPRPRPRPQLSPRP, the “shrunken log2 fold change” value is -0.211.
The value for RRIRDRPPRLPRPRPRPEMMPRP was 0.71; that for RRIRIRPPRLPRPRPRPAPEPRP was 1.9; that for RRIRQRPPRLPRPRPRPTFSPRP was -0.0427.
The value for RRIRRRPPRLPRPRPRPIWAPRP was 0.0342; that for RRIRTRPPRLPRPRPRPTYMPRP was -0.32.
The value for RRIRDRPPRLPRPRPRPNQCPRP was -0.436; that for RRIRRRPPRLPRPRPRPQKDPRP was -0.151.
As to RRIRCRPPRLPRPRPRPVRWPRP, the “shrunken log2 fold change” value worked out at 0.952.
The value for RRIRIRPPRLPRPRPRPSSVPRP was -1.03; that for RRIRERPPRLPRPRPRPQAIPRP was -0.0062.
The value for RRIRVRPPRLPRPRPRPCTYPRP was -0.0569; that for RRIRYRPPRLPRPRPRPPVCPRP was 0.065.
Turning to RRIRHRPPRLPRPRPRPVQCPRP, the “shrunken log2 fold change” value was -0.00186.
The value for RRIRKRPPRLPRPRPRPEVDPRP was 3.04; that for RRIRSRPPRLPRPRPRPRRRPRP was 0.312.
The value for RRIRRRPPRLPRPRPRPHPTPRP was 0.563.
The result for RRIRMRPPRLPRPRPRPHMVPRP reads -0.0116; that for RRIRYRPPRLPRPRPRPNALPRP, -0.236.
In the case of RRIRPRPPRLPRPRPRPCANPRP, the “shrunken log2 fold change” value is 0.0366.
In the case of RRIRLRPPRLPRPRPRPDINPRP, the “shrunken log2 fold change” value was -0.665.
RRIRWRPPRLPRPRPRPQHYPRP: the “shrunken log2 fold change” value was -0.574.
The result for RRIRLRPPRLPRPRPRPQYCPRP reads 0.273.
As to RRIRSRPPRLPRPRPRPVKLPRP, the “shrunken log2 fold change” value was -0.104.
The result for RRIRDRPPRLPRPRPRPWFPPRP reads -0.234; that for RRIRPRPPRLPRPRPRPYTKPRP, -0.0218.
For the sequence RRIRHRPPRLPRPRPRPQHGPRP, the “shrunken log2 fold change” value was 0.00949.
The result for RRIRIRPPRLPRPRPRPNAEPRP reads -0.151.
The value for RRIRMRPPRLPRPRPRPKMEPRP was 1.45; that for RRIRNRPPRLPRPRPRPLSPPRP was -0.215.
With RRIRGRPPRLPRPRPRPPRQPRP, the “shrunken log2 fold change” value is 1.27.
On to RRIRSRPPRLPRPRPRPPQYPRP, for which the “shrunken log2 fold change” value was -0.0375.
The result for RRIRQRPPRLPRPRPRPAQNPRP reads 0.231; that for RRIRVRPPRLPRPRPRPRQKPRP, 0.212.
